Measurements published in patent US20200079865A1 (Bristol-Myers Squibb, published 2020).

Experiments:
[1] = target: T1, human GITR, membrane bound (on activated human T cells, 3A9-hGITR cells, huGITR knock-in mouse T cells) (human, UniProt Q9Y5U5 26-241); test: FACS competition on activated human CD4+ T cells: pre-bound GITR-L titrated, then 28F3-hIgG1 at a fixed 0.5 ug/mL, detected with PE anti-human IgG Fc; unit from the axis
T1 construct: also called TNFRSF18
T1 sequence: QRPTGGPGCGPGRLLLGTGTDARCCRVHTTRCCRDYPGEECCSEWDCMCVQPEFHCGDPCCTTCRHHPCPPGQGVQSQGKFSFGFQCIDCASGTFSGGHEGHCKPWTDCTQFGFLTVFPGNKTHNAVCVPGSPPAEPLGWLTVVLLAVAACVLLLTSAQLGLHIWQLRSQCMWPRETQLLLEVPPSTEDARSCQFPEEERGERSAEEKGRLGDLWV
Description: (§1) The samples were acquired on a FACS Canto Flow Cytometer (BD, San Jose) and analyzed with FlowJo software (Tree Star, Inc, Ashland, Oreg.).

[2] = target: T1, human GITR, membrane bound (on …); test: FACS on PHA-activated human CD4+ and CD8+ T cells, anti-HA detection
Description: as §1

[3] = target: T1, human GITR, membrane bound (on …); test: FACS (MFI, PE anti-HA tag) on PHA-activated human T cells, CD4 column; the table's row head reads IC50, the text calls it EC50; unit from the axis
Description: as §1

[4] = target: T1, human GITR, membrane bound (on …); test: FACS (MFI, PE anti-HA tag) on PHA-activated human T cells, CD8 column; the table's row head reads IC50, the text calls it EC50; unit from the axis
Description: as §1

[5] = target: T1, human GITR, membrane bound (on …); test: FACS competition on PHA-activated human T cells, pre-bound GITR-L against 0.5 ug/ml 28F3-hIgG1; partial inhibition
Description: as §1

IC50 [1]: 2.44 ng/mL
EC50 [2]: 0.016 µg/mL
EC50 [3]: 0.016 µg/mL
EC50 [4]: 0.0163 µg/mL
IC50 [5]: 2.4 ng/mL
B1: recombinant hGITR-L trimer (R&D Systems #6987-GL) (ligand)
chain: LQLETAKEPCMAKFGPLPSKWQMASSEPPCVNKVSDWKLEILQNGLYLIYGQVAPNANYNDVAPFEVRLYKNKDMIQTLTNKSKIQNVGGTYELHVGDTIDLIFNSEHQVLKNNTYWGIILLANPQFIS
notes: Bought soluble trimer, detected through a hemagglutinin (HA) tag; also called GITR Ligand; rhGITR-L
